Laboratory results published in article PMC5969528.
Where two headings read alike, the source gives them in different places.

Experiments:
[1] = target: cytoplasmic dynein-1 heavy chain (mouse (endogenous in mouse brain)) (UniProt Q9JHU4); test: cryo-EM structure
[2] = target: cytoplasmic dynein-1 heavy chain (mouse (endogenous in mouse brain)) (UniProt Q9JHU4); test: cryo-EM structure; remark: listed apart in the source

## cytoplasmic dynein-1 heavy chain, Q9JHU4 1-4644
[1]
  stoichiometry N: 2
[2]
  stoichiometry N: 2
